For this assay, the target named is T1, human gastric inhibitory peptide receptor (hGIPR) (Homo sapiens, UniProt P48546).
T1 construct: expressed in transfected cells; host or cells: HEK293
T1 sequence (P48546 22-466): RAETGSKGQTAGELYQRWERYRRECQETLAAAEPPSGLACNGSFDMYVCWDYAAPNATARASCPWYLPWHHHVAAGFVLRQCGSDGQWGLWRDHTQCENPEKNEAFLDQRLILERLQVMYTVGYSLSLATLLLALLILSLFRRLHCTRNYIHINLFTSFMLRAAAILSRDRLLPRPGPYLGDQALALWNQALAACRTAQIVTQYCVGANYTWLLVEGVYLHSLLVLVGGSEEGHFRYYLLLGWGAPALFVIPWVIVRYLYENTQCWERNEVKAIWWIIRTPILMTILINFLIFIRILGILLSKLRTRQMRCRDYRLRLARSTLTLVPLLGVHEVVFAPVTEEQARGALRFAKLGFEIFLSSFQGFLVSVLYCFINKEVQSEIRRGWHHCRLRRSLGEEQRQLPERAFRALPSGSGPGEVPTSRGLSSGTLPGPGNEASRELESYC
Nature of the assay: cAMP pharmacological functional assay in presence of 0.1% casein, hGIPR. Format: cell-based. Conditions: ratio of hGIPR to hGLP1R cAMP EC50 ratios.

In the case of “Y-Aib-EGT-αMeF(2F)-TSDYSI-αMeL-LDEK((2-[2-(2-Amino-ethoxy)-ethoxy]-acetyl)2-(γGlu)-CO—(CH2)18—CO2H)AQ-Aib-EFI-Aib-YLIEGGPSSGAPPPS-NH2 (YXEGTXTSDYSIXLDEKAQXEFIXYLIEGGPSSGAPPPS; Aib, αMeF(2F), αMeL; acylated lysine C20 diacid; amide; (2)..(2) Xaa at position 2 is Aib; (6)..(6) Xaa at position 6 is alpha-methyl-Phe(2F); (13)..(13) Xaa at position 13 is alpha-methyl-Leu; MOD_RES (17)..(17) Lys at position 17 is chemically modified by conjugation of the epsilon-amino group of the Lys side chain with (2-[2-(2-amino-ethoxy)-ethoxy]-acetyl)2-(gamma-Glu)-CO-(CH2)18- CO2H; (20)..(20) Xaa at position 20 is Aib; (24)..(24) Xaa at positi) [Peptide 152]”, the “[hGIPR/hGLP1R] EC50 Ratio” value was determined as 5.31. For the substance “Y-Aib-EGT-αMeF(2F)-TSDYSI-αMeL-LDEK((2-[2-(2-Amino-ethoxy)-ethoxy]-acetyl)2-(γGlu)-CO—(CH2)18—CO2H)AQ-Aib-EFIAYLIEGGPSSGAPPPS-NH2 (YXEGTXTSDYSIXLDEKAQXEFIAYLIEGGPSSGAPPPS; Aib, αMeF(2F), αMeL; acylated lysine C20 diacid; amide; (2)..(2) Xaa at position 2 is Aib; (6)..(6) Xaa at position 6 is alpha-methyl-Phe(2F); (13)..(13) Xaa at position 13 is alpha-methyl-Leu; MOD_RES (17)..(17) Lys at position 17 is chemically modified by conjugation of the epsilon-amino group of the Lys side chain with (2-[2-(2-amino-ethoxy)-ethoxy]-acetyl)2-(gamma-Glu)-CO-(CH2)18- CO2H; (20)..(20) Xaa at position 20 is Aib; MOD_RES (39)..(39) Ser a) [Peptide 148]”, the “[hGIPR/hGLP1R] EC50 Ratio” value is 3.14. On to “Y-Aib-EGT-αMeF(2F)-TSDYSI-αMeL-LDEK((2-[2-(2-Amino-ethoxy)-ethoxy]-acetyl)2-(γGlu)-CO—(CH2)18—CO2H)AQ-Aib-EFIE-αMeY-LIEGGPSSGAPPPS-NH2 (YXEGTXTSDYSIXLDEKAQXEFIEXLIEGGPSSGAPPPS; Aib, αMeF(2F), αMeL, αMeY; lipidated K; amide; (2)..(2) Xaa at position 2 is Aib; (6)..(6) Xaa at position 6 is alpha-methyl-Phe(2F); (13)..(13) Xaa at position 13 is alpha-methyl-Leu; MOD_RES (17)..(17) Lys at position 17 is chemically modified by conjugation of the epsilon-amino group of the Lys side chain with (2-[2-(2-amino-ethoxy)-ethoxy]-acetyl)2-(gamma-Glu)-CO-(CH2)18- CO2H; (20)..(20) Xaa at position 20 is Aib; (25)..(25) Xaa at positi) [Peptide 223]”, for which the “[hGIPR/hGLP1R] EC50 Ratio” value worked out at 3.05. Take “Y-Aib-EGT-αMeF(2F)-TSDYSI-αMeL-LDEK((2-[2-(2-Amino-ethoxy)-ethoxy]-acetyl)2-(γGlu)-CO—(CH2)18—CO2H)AQ-Aib-EFIEYLIEGG-NH2 (YXEGTXTSDYSIXLDEKAQXEFIEYLIEGG; Aib, αMe residues, C20 diacid lipidation, C-amide; (2)..(2) Xaa at position 2 is Aib; (6)..(6) Xaa at position 6 is alpha-methyl-Phe(2F); (13)..(13) Xaa at position 13 is alpha-methyl-Leu; MOD_RES (17)..(17) Lys at position 17 is chemically modified by conjugation of the epsilon-amino group of the Lys side chain with (2-[2-(2-amino-ethoxy)-ethoxy]-acetyl)2-(gamma-Glu)-CO-(CH2)18- CO2H; (20)..(20) Xaa at position 20 is Aib; MOD_RES (30)..(30) Gly a) [Peptide 103]”: the “[hGIPR/hGLP1R] EC50 Ratio” value turned out to be 3.07.

Take “Y-Aib-EGT-αMeF(2F)-TSDYSI-αMeL-LDEK((2-[2-(2-Amino-ethoxy)-ethoxy]-acetyl)2-(γGlu)-CO—(CH2)18—CO2H)AQ-Aib-EFIEYLIEGGPSSGAPPPS-NH2 (YXEGTXTSDYSIXLDEKAQXEFIEYLIEGGPSSGAPPPS; Aib, αMeF(2F), αMeL; acylated lysine C20 diacid; amide; (2)..(2) Xaa at position 2 is Aib; (6)..(6) Xaa at position 6 is alpha-methyl-Phe(2F); (13)..(13) Xaa at position 13 is alpha-methyl-Leu; MOD_RES (17)..(17) Lys at position 17 is chemically modified by conjugation of the epsilon-amino group of the Lys side chain with (2-[2-(2-amino-ethoxy)-ethoxy]-acetyl)2-(gamma-Glu)-CO-(CH2)18- CO2H; (20)..(20) Xaa at position 20 is Aib; MOD_RES (39)..(39) Ser a) [Peptide 118]”: the “[hGIPR/hGLP1R] EC50 Ratio” value is given as 3.03. Turning to “Y-Aib-EGT-αMeF(2F)-TSDYSI-αMeL-LDEK((2-[2-(2-Amino-ethoxy)-ethoxy]-acetyl)2-(γGlu)-CO—(CH2)18—CO2H)AQ-Aib-EFIHYLIEGGPSSGAPPPS-NH2 (YXEGTXTSDYSIXLDEKAQXEFIHYLIEGGPSSGAPPPS; Aib, αMeF(2F), αMeL; acylated lysine C20 diacid; amide; (2)..(2) Xaa at position 2 is Aib; (6)..(6) Xaa at position 6 is alpha-methyl-Phe(2F); (13)..(13) Xaa at position 13 is alpha-methyl-Leu; MOD_RES (17)..(17) Lys at position 17 is chemically modified by conjugation of the epsilon-amino group of the Lys side chain with (2-[2-(2-amino-ethoxy)-ethoxy]-acetyl)2-(gamma-Glu)-CO-(CH2)18- CO2H; (20)..(20) Xaa at position 20 is Aib; MOD_RES (39)..(39) Ser a) [Peptide 153]”, the “[hGIPR/hGLP1R] EC50 Ratio” value was 3.39.

Take “Y-Aib-EGT-αMeF(2F)-TSDYSI-αMeL-LDEK((2-[2-(2-Amino-ethoxy)-ethoxy]-acetyl)2-(γGlu)-CO—(CH2)18—CO2H)AQ-Aib-EFIPYLIEGGPSSGAPPPS-NH2 (YXEGTXTSDYSIXLDEKAQXEFIPYLIEGGPSSGAPPPS; Aib, αMeF(2F), αMeL; acylated lysine C20 diacid; amide; (2)..(2) Xaa at position 2 is Aib; (6)..(6) Xaa at position 6 is alpha-methyl-Phe(2F); (13)..(13) Xaa at position 13 is alpha-methyl-Leu; MOD_RES (17)..(17) Lys at position 17 is chemically modified by conjugation of the epsilon-amino group of the Lys side chain with (2-[2-(2-amino-ethoxy)-ethoxy]-acetyl)2-(gamma-Glu)-CO-(CH2)18- CO2H; (20)..(20) Xaa at position 20 is Aib; MOD_RES (39)..(39) Ser a) [Peptide 151]”: the “[hGIPR/hGLP1R] EC50 Ratio” value was determined as 9.42. As for “Y-Aib-EGT-αMeF(2F)-TSDYSI-αMeL-LDEK((2-[2-(2-Amino-ethoxy)-ethoxy]-acetyl)2-(γGlu)-CO—(CH2)18—CO2H)AQ-Aib-EFISYLIEGGPSSGAPPPS-NH2 (YXEGTXTSDYSIXLDEKAQXEFISYLIEGGPSSGAPPPS; Aib, αMeF(2F), αMeL; acylated lysine C20 diacid; amide; (2)..(2) Xaa at position 2 is Aib; (6)..(6) Xaa at position 6 is alpha-methyl-Phe(2F); (13)..(13) Xaa at position 13 is alpha-methyl-Leu; MOD_RES (17)..(17) Lys at position 17 is chemically modified by conjugation of the epsilon-amino group of the Lys side chain with (2-[2-(2-amino-ethoxy)-ethoxy]-acetyl)2-(gamma-Glu)-CO-(CH2)18- CO2H; (20)..(20) Xaa at position 20 is Aib; MOD_RES (39)..(39) Ser a) [Peptide 150]”, the “[hGIPR/hGLP1R] EC50 Ratio” value worked out at 3.34. As for “Y-Aib-EGT-αMeF(2F)-TSDYSI-αMeL-LDEK((2-[2-(2-Amino-ethoxy)-ethoxy]-acetyl)2-(γGlu)-CO—(CH2)18—CO2H)AQ-Aib-EFIVYLIEGGPSSGAPPPS-NH2 (YXEGTXTSDYSIXLDEKAQXEFIVYLIEGGPSSGAPPPS; Aib, αMeF(2F), αMeL; acylated lysine C20 diacid; amide; (2)..(2) Xaa at position 2 is Aib; (6)..(6) Xaa at position 6 is alpha-methyl-Phe(2F); (13)..(13) Xaa at position 13 is alpha-methyl-Leu; MOD_RES (17)..(17) Lys at position 17 is chemically modified by conjugation of the epsilon-amino group of the Lys side chain with (2-[2-(2-amino-ethoxy)-ethoxy]-acetyl)2-(gamma-Glu)-CO-(CH2)18- CO2H; (20)..(20) Xaa at position 20 is Aib; MOD_RES (39)..(39) Ser a) [Peptide 149]”, the “[hGIPR/hGLP1R] EC50 Ratio” value was 3.76.

These data come from US12295987B2, “Method of using a GIP/GLP1 co-agonist for diabetes” (Eli Lilly and Company, priority 2018, dated 2025).
